Experimental data reported in US8889408B2, “Factor taking part in transcription control” (Sony Corporation, priority 2002, dated 2014).

What was measured:
[1] = tested on: Gal4 reporter plasmid (pGal4-Luciferase); assay: Gal4 reporter (luciferase) promoter repression in NIH3T3 cells; assay type: cell-based
Excerpt: Assuming that HDART takes part in more direct inhibition, it is expected that it has an autonomous repression function. To confirm the above expectation, in order that HDART can bind to DNA the full-length HDART cDNA was fused to Gal4 DNA binding region (GAL4DBD: a region having only a binding region with GAL4DNA and lacking a transcription control region) to analyze whether the transcription from the GAL4A promoter could be regulated within NIH3T3 cells.
More particularly, a Gal4 DBD-HDART plasmid capable of expressing a full-length HDART and Gal4 DBD fused protein was transfected in different amounts (0, 0.1, 0.3, and 0.5 μg) into NIH3T3 cells previously prepared to contain Gal4 reporter plasmid (pGal4-Luciferase). It should be noted that in order to make a uniform total amount of DNA used for the transfection, the amount of an expression vector was equalized to 0.5 μg by adding the appropriate amount of a vacant vector of Gal4 DBD in each transfection. 24 hours after the transfection, the expression activity (Luciferase activity) of reporter genes from the promoter was analyzed. The luciferase activity for each sample is indicated as a corrected value based on the luciferase activity obtained by introduction of a vacant vector alone as a reference (100%) (FIG. 8). It will be noted that the results of the analysis were indicated as an average of the results of three experiments, and a standard deviation is indicated as an error bar (FIG. 8A). Similar analyses were made using a different type of cell, U-205 cell, with Gal4 DBD-HDART (in an amount of 0 or 0.5 μg) (FIG. 8B).

[2] = tested on: MM-1-19-P cells; assay: ATRA-induced differentiation of MM-1-19-P rhabdomyosarcoma cells; assay type: cell-based, human
Excerpt: It is known that ATRA (all-trans retinoic acid) is an important inducer for tumor cell differentiation (20-22). The human rhabdomyosarcoma cell line MM-1-19-P is constituted mainly of small polygonal cells, which when provided with retinoic acid, ultimately differentiate into myotubular cytomegalic cells. In order to clarify the physiological role of HDART in the reaction ascribed to nuclear hormone receptors, the influence of the expression with HDART on the differentiation of MM-1-19-P caused by ATRA was analyzed.
MM-1-19-P cells were plated in a […] Petri dish, followed by co-transfection of the cells with 0.4 μg of pGFP vector and 2 μg of pcDNA3 (vacant vector) or pcDMA3-HDART (HDART expression vector). 24 hours after the transfection, the medium was changed with an ATRA-containing (2 μM) or ATRA-free fresh one. […] All experiments were repeated four times, and the number of cells assessed as positive for GFP was counted. It will be noted that in FIG. 12, the standard microphotographs of green fluorescence of GFP are shown in panels of FIGS. 12A, 12B, 12C and 12D, and the phase differential microphotographs are shown in panels of FIGS. 12E and 12F, respectively. In the figure, 12A indicates ATRA non-treated, vacant vector-introduced cells, 12B indicates ATRA treated, vacant vector-introduced cells, 12C indicates ATRA-non-treated, HDART expression vector-introduced cells, 12D indicates ATRA-treated, HDART expression vector-introduced cells, 12E indicates cells under the same conditions as in 12C above, and 12F indicates cells under the same conditions as in 12D above. In addition, the black arrow in the panel of FIG. 12F indicates undifferentiated GFP positive cells, and white arrow indicates differentiated cells.

[3] = biological target: HDAC3 (Homo sapiens, UniProt O15379); assay: GST pulldown analysis; assay type: binding; conditions: GST-HDART fused protein versus GST protein
HDAC3, sequence (O15379 whole entry, species assumed, the tested form may be a part): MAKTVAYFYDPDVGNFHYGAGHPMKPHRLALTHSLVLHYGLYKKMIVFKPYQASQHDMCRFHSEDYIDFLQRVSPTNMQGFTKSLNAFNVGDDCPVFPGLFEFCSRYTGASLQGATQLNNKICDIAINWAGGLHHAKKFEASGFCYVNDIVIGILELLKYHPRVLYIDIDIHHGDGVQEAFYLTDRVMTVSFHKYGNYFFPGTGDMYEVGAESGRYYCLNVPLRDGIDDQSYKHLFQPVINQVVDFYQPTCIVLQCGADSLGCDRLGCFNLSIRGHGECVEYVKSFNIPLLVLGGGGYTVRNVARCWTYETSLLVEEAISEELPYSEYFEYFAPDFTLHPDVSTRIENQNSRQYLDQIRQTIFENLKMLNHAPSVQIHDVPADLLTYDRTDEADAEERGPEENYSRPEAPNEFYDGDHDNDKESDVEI
Excerpt: Further, the direct interaction between HDART and HDAC3 was investigated by GST pulldown analysis. The GST pulldown analysis was essentially carried out according to a known procedure (Tzamarias, D., and Struhl, K. (1995) Genes Dev 9(7), 821-31.). Using TNT (Registered Trademark) in vitro transcription/translation system (Promega), the in vitro translation of HDAC3 was made in the presence of ^35S-methionine. GST protein or GST-HDART fused protein was, respectively, expressed within Escherichia coli, followed by purification in a GST binding buffer solution (50 mM tris-HCl, 200 mM LiCl, 0.5% NP40, 5 mM EDTA, 1 mM PMSF) by use of glutathione sepharose. A binding reaction solution containing GST-HDART fused protein or control GST protein (about 1 μg) and ^35S-radio-labeled in vitro translation product (10 μl) in 1 ml of the GST binding buffer solution was prepared. This reaction solution was incubated at 4° C. for one hour while shaking, after which the resulting the sepharose-GST protein complex was washed five times with the GST binding buffer solution. […] It was confirmed by Coomassie brilliant blue staining that the GST fused protein was equally electrophoresed, and ^35S-radio-labeled HDAC was detected according to autoradiography.

[4] = tested on: retinoic acid receptor; assay: RAR reporter CAT analysis in HepG2 cells; assay type: cell-based; conditions: pcDNA3-HDART 0, 0.5, 1.0 μg; ATRA 10^−8 M; HepG2 cells
Method: Since it is shown in the above example that HDART is able to interact with Skip, the functional role of HDART on the transcription route ascribed to a nuclear receptor was analyzed. First, the effect of HDART on the transcription regulation by retinoic acid receptor was analyzed. For this purpose, the CAT analysis was made using a RAR (retinoid acid receptor) reporter plasmid incorporating a thymidine kinase minimum promoter (pTREpal-tata) and CAT gene therein downstream of a retinoid response element.
More particularly, pcDNA3-HDART, capable of steadily expressing HDART, and, at the same time, RAR reporter plasmid, were transfected into HepG2 cells by use of Effectene kit (QIAGEN™). It is to be noted that the pcDNA3-HDART expression vector was introduced in different amounts of 0, 0.5 and 1.0 μg, and the amount of DNA in the respective transfections was equalized at 1 μg by adding the appropriate amount of a vacant vector of pcDNA. After the transfection, growth was made in the presence (10^−8 M) or absence of ATRA and the CAT activity was measured. The results of the measurement (FIG. 6) are indicated in terms of values corrected on the basis of the CAT activity obtained after introduction of 1.0 μg of a vacant vector in the absence of ATRA. In addition, the average of the results of three experiments and a standard deviation in terms of an error bar are also shown.
Next, the influence of the overexpression of N4TPR on the transcription from RAR or a glucocorticoid responsive promoter was checked. It will be noted that this test was made in the same manner as in the reporter analysis set out in Example 4, but using GFP-N4TPR expression vector (0, 0.3 and 0.5 μg).

B1: HDART: HDAC associated repressor TPR protein, 855 amino acids, SEQ ID NO: 2; transcription repressing factor, used as fusions or expressed from vector (protein, listed as Homo sapiens)
chain: MVVMARLSRPERPDLVFEEEDLPYEEEIMRNQFSVKCWLRYIEFKQGAPKPRLNQLYERALKLLPCSYKLWYRYLKARRAQVKHRCVTDPAYEDVNNCHERAFVFMHKMPRLWLDYCQFLMDQGRVTHTRRTFDRALRALPITQHSRIWPLYLRFLRSHPLPETAVRGYRRFLKLSPESAEEYIEYLKSSDRLDEAAQRLATVVNDERFVSKAGKSNYQLWHELCDLISQNPDKVQSLNVDAIIRGGLTRFTDQLGKLWCSLADYYIRSGHFEKARDVYEEAIRTVMTVRDFTQVFDSYAQFEESMIAAKMETASELGREEEDDVDLELRLARFEQLISRRPLLLNSVLLRQNPHHVHEWHKRVALHQGRPREIINTYTEAVQTVDPFKATGKPHTLWVAFAKFYEDNGQLDDARVILEKATKVNFKQVDDLASVWCQCGELELRHENYDEALRLLRKATALPARRAEYFDGSEPVQNRVYKSLKVWSMLADLEESLGTFQSTKAVYDRILDLRIATPQIVINYAMFLEEHKYFEESFKAYERGISLFKWPNVSDIWSTYLTKFIARYGGRKLERARDLFEQALDGCPPKYAKTLYLLYAQLEEEWGLARHAMAVYERATRAVEPAQQYDMFNIYIKRAAEIYGVTHTRGIYQKAIEVLSDEHAREMCLRFADMECKLGEIDRARAIYSFCSQICDPRTTGAFWQTWKDFEVRHGNEDTIKEMLRIRRSVQATYNTQVNFMASQMLKVSGSATGTVSDLAPGQSGMDDMKLLEQRAEQLAAEAERDQPLRAQSKILFVRSDASREELAELAQQVNPEEIQLGEDEDEDEMDLEPNEVRLEQQSVPAAVFGSLKED
B1 was tested, and the promoter activity ([1]; Gal4 DBD-HDART plasmid 0, 0.1, 0.3, 0.5 μg, NIH-3T3 cells) was “significantly inhibits”, the “lowering of the expression of luciferase” value ([1]; Gal4 DBD-HDART plasmid, highest concentration 0.5 μg, NIH-3T3 cells, 24 hours after transfection, vacant vector = 100%) was 80% and the “expression inhibition of luciferase” value ([1]; HDART not having a GAL4 DNA binding region) was “not observed”. For the same molecule, the “change in phenotype on ATRA treatment” value ([2]; HDART expression vector-introduced GFP positive cells, ATRA 2 μM, 48 hours) was “little change in the phenotype”, the “numbers of GFP positive cells, ATRA treated versus non-treated group” value ([2]; HDART expression vector-introduced cells) was “same” and the “pulldown of in vitro translated HDAC3” value [3] was “pulled down”. For the same molecule, the “ATRA-induced CAT activity” value [4] was “inhibited by HDART in a concentration dependent manner”.
